According to patent publication US20040121415A1 (published 2004):

What was measured:
[1] = molecular target: Carcinoembryonic antigen (CEA) (UniProt P06731); test: SPR (Biacore 2000), oxidised CEA immobilised on CM5 chip, Fab′ injected
[2] = molecular target: Carcinoembryonic antigen (CEA) (UniProt P06731); test: SPR (Biacore 2000), oxidised CEA immobilised; relative to unmodified hA5B7 Fab′
[3] = molecular target: T1, human TNF (human, UniProt P01375 77-233); test: BIAcore as in Example 3: sample captured by anti-Fab′ antibody, human TNF passed over
T1 construct: Soluble human TNF, used in the L929 assay and passed over captured antibody in BIAcore; also called human TNFα
T1 sequence (P01375 77-233 limits assumed): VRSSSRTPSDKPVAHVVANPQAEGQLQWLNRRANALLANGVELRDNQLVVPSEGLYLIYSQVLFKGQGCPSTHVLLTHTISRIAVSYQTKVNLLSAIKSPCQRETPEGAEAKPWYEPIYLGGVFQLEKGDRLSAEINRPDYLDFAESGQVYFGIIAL

Carcinoembryonic antigen (CEA), sequence (P06731 35-685 limits assumed): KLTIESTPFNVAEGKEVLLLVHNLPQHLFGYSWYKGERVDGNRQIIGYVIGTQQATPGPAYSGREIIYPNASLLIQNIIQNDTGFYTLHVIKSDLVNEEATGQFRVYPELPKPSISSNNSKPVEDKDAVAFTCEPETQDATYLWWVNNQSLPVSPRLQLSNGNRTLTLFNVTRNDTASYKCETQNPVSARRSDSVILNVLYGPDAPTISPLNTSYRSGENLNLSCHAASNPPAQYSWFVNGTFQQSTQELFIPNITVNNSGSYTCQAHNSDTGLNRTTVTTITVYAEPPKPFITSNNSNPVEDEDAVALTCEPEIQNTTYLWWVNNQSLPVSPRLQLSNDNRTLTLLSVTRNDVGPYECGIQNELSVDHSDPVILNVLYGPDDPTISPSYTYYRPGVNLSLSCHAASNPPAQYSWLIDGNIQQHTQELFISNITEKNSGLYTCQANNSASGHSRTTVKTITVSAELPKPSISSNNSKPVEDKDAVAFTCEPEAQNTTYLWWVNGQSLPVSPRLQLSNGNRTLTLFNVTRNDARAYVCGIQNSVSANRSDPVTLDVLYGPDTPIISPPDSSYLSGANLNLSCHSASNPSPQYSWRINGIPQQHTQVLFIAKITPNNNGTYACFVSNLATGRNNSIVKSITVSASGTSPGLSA

| Kd [1] [nM] | koff [1] [s⁻¹] | kon [1] [M⁻¹ s⁻¹] | Immunoreactivity [2] [%] | Kd [3] [nM] | Molecule |
| --- | --- | --- | --- | --- | --- |
| 1.87 | 0.000161 | 86000 | 100 | – | hA5B7 Fab′ (unmodified) |
| – | – | – | – | 0.156 | hTNF40 IgG (antibody, V domains shown) VH: QIQLVQSGPELKKPGETVKISCKASGYVFTDYGMNWVKQAPGKAFKWMGWINTYIGEPIYVDDFKGRFAFSLETSASTAFLQINNLKNEDTATYFCARGYRSYAMDYWGQGTSVTVSS VL: DIVMTQSQKFMSTSVGDRVSVTCKATQNVGTNVAWYQQKPGQSPKALIYSASFLYSGVPYRFTGSGSGTDFTLTISTVQSEDLAEYFCQQYNIYPLTFGAGTKLELKR |
